Test results: IntAct's records for PubMed 28486698

B1: THAP domain-containing protein 1 (Homo sapiens), Q9NVV9 (parent)
chain: MVQSCSAYGCKNRYDKDKPVSFHKFPLTRPSLCKEWEAAVRRKNFKPTKYSSICSEHFTPDCFKRECNNKLLKENAVPTIFLCTEPHDKKEDLLEPQEQLPPPPLPPPVSQVDAAIGLLMPPLQTPVNLSVFCDHNYTVEDTMHQRKRIHQLEQQVEKLRKKLKTAQQRCRRQERQLEKLKEVVHFQKEKDDVSERGYVILPNDYFEIVEVPA

Variants of: B1
Details: with hcfc1_human HCFC1, P51610
Sequence of hcfc1_human HCFC1, P51610 (P51610 whole entry): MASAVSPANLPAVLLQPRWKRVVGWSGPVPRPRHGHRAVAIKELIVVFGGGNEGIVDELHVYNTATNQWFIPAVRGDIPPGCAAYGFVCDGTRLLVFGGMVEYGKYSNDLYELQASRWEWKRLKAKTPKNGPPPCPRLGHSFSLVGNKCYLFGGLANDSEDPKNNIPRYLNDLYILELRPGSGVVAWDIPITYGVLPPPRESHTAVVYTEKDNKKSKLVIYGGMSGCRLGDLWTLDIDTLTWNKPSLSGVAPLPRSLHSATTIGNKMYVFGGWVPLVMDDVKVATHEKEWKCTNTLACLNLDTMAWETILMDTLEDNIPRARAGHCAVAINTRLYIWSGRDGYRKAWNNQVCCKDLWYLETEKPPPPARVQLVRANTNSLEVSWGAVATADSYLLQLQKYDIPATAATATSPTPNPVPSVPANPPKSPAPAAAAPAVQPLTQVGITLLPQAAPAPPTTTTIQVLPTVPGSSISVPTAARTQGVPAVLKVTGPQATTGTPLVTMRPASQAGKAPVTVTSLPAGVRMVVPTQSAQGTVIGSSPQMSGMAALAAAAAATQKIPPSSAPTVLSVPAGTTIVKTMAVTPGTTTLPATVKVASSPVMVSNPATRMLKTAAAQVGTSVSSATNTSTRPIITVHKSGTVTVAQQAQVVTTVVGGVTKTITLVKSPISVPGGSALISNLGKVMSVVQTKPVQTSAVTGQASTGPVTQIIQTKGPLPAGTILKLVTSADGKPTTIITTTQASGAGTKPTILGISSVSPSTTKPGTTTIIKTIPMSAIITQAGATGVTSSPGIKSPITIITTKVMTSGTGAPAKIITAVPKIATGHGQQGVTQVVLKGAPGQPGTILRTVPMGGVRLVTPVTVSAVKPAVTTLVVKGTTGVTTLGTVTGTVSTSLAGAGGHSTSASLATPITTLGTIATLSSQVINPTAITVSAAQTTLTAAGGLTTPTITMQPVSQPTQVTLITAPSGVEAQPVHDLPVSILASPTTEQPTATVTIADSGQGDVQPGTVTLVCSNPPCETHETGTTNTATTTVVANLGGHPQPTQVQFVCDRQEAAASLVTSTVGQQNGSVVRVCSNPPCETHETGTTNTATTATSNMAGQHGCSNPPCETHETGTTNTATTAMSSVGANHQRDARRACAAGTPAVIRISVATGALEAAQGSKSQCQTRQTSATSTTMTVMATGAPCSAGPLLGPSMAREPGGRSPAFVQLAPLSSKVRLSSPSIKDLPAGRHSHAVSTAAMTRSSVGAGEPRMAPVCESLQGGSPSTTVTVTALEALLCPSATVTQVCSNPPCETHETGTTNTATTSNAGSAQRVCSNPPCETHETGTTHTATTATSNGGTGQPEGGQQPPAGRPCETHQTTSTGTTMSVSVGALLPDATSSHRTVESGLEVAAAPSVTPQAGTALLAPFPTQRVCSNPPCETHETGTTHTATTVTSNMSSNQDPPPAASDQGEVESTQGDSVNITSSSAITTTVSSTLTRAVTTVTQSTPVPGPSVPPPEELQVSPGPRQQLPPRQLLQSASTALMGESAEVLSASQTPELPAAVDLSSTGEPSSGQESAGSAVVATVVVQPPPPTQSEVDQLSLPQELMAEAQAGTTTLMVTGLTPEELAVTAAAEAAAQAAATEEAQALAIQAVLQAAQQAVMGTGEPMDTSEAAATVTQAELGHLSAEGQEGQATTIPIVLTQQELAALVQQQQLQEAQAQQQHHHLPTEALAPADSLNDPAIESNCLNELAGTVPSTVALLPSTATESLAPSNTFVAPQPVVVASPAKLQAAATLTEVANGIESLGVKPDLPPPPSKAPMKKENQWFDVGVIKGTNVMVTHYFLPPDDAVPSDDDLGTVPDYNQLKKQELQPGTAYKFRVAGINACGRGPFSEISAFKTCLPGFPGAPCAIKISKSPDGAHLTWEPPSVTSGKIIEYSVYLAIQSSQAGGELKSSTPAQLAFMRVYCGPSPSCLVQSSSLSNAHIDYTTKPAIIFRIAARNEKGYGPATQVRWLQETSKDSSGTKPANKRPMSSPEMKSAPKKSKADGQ

| effect of a mutation on the interaction | Variant |
| --- | --- |
| disrupting interaction strength | N136K |
| disrupting interaction strength | N136S |
| disrupting interaction strength | Y137C |

Variants of: B1
Details: with hcfc1_human HCFC1, P51610
Remark: another data set of the same source

| effect of a mutation on the interaction | Variant |
| --- | --- |
| decreasing interaction strength | N136S |
